Test results from the MegaScale stability set (Tsuboyama et al. 2023).

B1: r16_88_TrROS_Hall (parent)
chain: EVIELKIKFKTPEQREKLKEIAKKLNAEVVEEKDGEVIIRFKTPEQAERALKEAEKLGAEVEL

Variants of: B1
Assay: folding stability dG (cDNA display proteolysis); higher = more stable
Conditions: PBS, room temperature

Row | Variant | folding stability dG
1 | K8C | 4.15 kcal/mol
2 | K8G | 4.05 kcal/mol
3 | P12C | 4.54 kcal/mol
4 | P12H | 4.59 kcal/mol
5 | P12G | 4.38 kcal/mol
6 | E55G | 4.22 kcal/mol
7 | E55L | 4.45 kcal/mol
8 | E55C | 4.43 kcal/mol
9 | E20W | 4.75 kcal/mol
10 | K33T | 4.35 kcal/mol
11 | K10A | 4.22 kcal/mol
12 | K42Y | 4.36 kcal/mol
13 | E32A | 4.34 kcal/mol
14 | E32V | 4.54 kcal/mol
15 | E32Q | 4.62 kcal/mol
16 | E4P | 4.4 kcal/mol
17 | E4L | 4.56 kcal/mol
18 | E4Y | 4.64 kcal/mol
19 | P44Q | 4.56 kcal/mol
20 | P44W | 4.58 kcal/mol
21 | P44S | 4.49 kcal/mol
22 | Q14A | 4.33 kcal/mol
23 | Q14R | 4.42 kcal/mol
24 | Q14L | 4.33 kcal/mol
25 | A54Q | 3.6 kcal/mol

Row | Variant | folding stability dG
26 | A54V | 4.43 kcal/mol
27 | K24V | 4.61 kcal/mol
28 | K24G | 4.47 kcal/mol
29 | T43E | 3.61 kcal/mol
30 | T43Q | 4.3 kcal/mol
31 | L57I | 4.43 kcal/mol
32 | L57D | 4.08 kcal/mol
33 | L57K | 3.5 kcal/mol
34 | L57V | 4.5 kcal/mol
35 | L57S | 4.26 kcal/mol
36 | L57A | 4.15 kcal/mol
37 | L57T | 4.04 kcal/mol
38 | K23E | 4.36 kcal/mol
39 | K23G | 4.43 kcal/mol
40 | K23I | 4.56 kcal/mol
41 | K23C | 4.61 kcal/mol
42 | K23W | 4.8 kcal/mol
43 | I3M | 4.63 kcal/mol
44 | E28H | 4.43 kcal/mol
45 | E28F | 4.17 kcal/mol
46 | E13K | 4.51 kcal/mol
47 | E13N | 4.57 kcal/mol
48 | I21P | 1.81 kcal/mol
49 | I21N | 4.13 kcal/mol
50 | I21C | 4.31 kcal/mol

Row | Variant | folding stability dG
51 | K52P | 3.91 kcal/mol
52 | K52T | 4.23 kcal/mol
53 | K52Y | 4.67 kcal/mol
54 | K52H | 4.31 kcal/mol
55 | G58Q | 4.25 kcal/mol
56 | G58W | 4.21 kcal/mol
57 | A22Q | 4.39 kcal/mol
58 | A22V | 4.38 kcal/mol
59 | A22H | 4.21 kcal/mol
60 | E16P | 4.03 kcal/mol
61 | E16T | 4.36 kcal/mol
62 | E16Q | 4.43 kcal/mol
63 | E16S | 4.44 kcal/mol
64 | E1Q | 4.25 kcal/mol
65 | E1P | 4.22 kcal/mol
66 | V61F | 4.05 kcal/mol
67 | E31A | 4.29 kcal/mol
68 | E31H | 4.63 kcal/mol
69 | E31Q | 4.57 kcal/mol
70 | A27H | 4.04 kcal/mol
71 | R15S | 4.17 kcal/mol
72 | V30A | 4.58 kcal/mol
73 | V30Y | 4.42 kcal/mol
74 | V30H | 4.35 kcal/mol
75 | E36F | 4.66 kcal/mol

Row | Variant | folding stability dG
76 | E36N | 4.24 kcal/mol
77 | D34Y | 4.29 kcal/mol
78 | D34T | 4.49 kcal/mol
79 | A47E | 4.18 kcal/mol
80 | A47R | 4.53 kcal/mol
81 | A47H | 4.42 kcal/mol
82 | A47G | 4.28 kcal/mol
83 | A47F | 4.52 kcal/mol
84 | K56G | 4.53 kcal/mol
85 | A50M | 4.3 kcal/mol
86 | A50S | 3.9 kcal/mol
87 | A50N | 3.58 kcal/mol
88 | A50T | 4.26 kcal/mol
89 | Q46A | 4.28 kcal/mol
90 | Q46H | 4.23 kcal/mol
91 | Q46P | 4.44 kcal/mol
92 | Q46R | 4 kcal/mol
93 | L25E | 4.25 kcal/mol
94 | L25D | 4.31 kcal/mol
95 | E45Q | 4.38 kcal/mol
96 | E45M | 4.46 kcal/mol
97 | E45R | 4.37 kcal/mol
98 | E60H | 4.19 kcal/mol
99 | E60Q | 4.2 kcal/mol
100 | E53C | 4.4 kcal/mol

Row | Variant | folding stability dG
101 | E53M | 4.39 kcal/mol
102 | E53P | 3.08 kcal/mol
103 | I38F | 4.96 kcal/mol
104 | I38V | 4.44 kcal/mol
105 | V29W | 4.3 kcal/mol
106 | L51Y | 4.08 kcal/mol
107 | R40Q | 4.07 kcal/mol
108 | R40H | 4.04 kcal/mol
109 | R40N | 4.13 kcal/mol
110 | K6Y | 4.77 kcal/mol
111 | F41M | 4.14 kcal/mol
112 | F41R | 1.04 kcal/mol
113 | F41Q | 2.23 kcal/mol
114 | L5R | 4.4 kcal/mol
115 | L5V | 4.29 kcal/mol
116 | L5K | 4.38 kcal/mol
117 | I7H | 3.18 kcal/mol
118 | I7N | 2.98 kcal/mol
119 | I7K | 2.77 kcal/mol
120 | I7A | 4.69 kcal/mol
121 | R49S | 4.48 kcal/mol
122 | N26D | 4.3 kcal/mol
123 | V37Y | 4.14 kcal/mol
124 | V37A | 4.08 kcal/mol
125 | V37H | 4.38 kcal/mol

Row | Variant | folding stability dG
126 | E48N | 4.62 kcal/mol
127 | E48K | 4.67 kcal/mol
128 | L63A | 4.17 kcal/mol
129 | L63S | 4.39 kcal/mol
130 | I39F | 4.92 kcal/mol
131 | L18H | 3.49 kcal/mol
132 | L18M | 4.28 kcal/mol
133 | E62P | 3.84 kcal/mol
134 | E62V | 4.35 kcal/mol
135 | E62K | 4.17 kcal/mol
136 | G35V | 4.35 kcal/mol
137 | G35C | 4.48 kcal/mol
138 | G35Q | 4.25 kcal/mol
139 | F9H | 4.19 kcal/mol
140 | F9V | 4.27 kcal/mol
141 | F9A | 4.06 kcal/mol
142 | F9W | 4.61 kcal/mol
143 | F9M | 3.98 kcal/mol
144 | K17P | 4.28 kcal/mol
145 | K17N | 4.42 kcal/mol
146 | K17C | 4.36 kcal/mol
147 | K19H | 4.29 kcal/mol
148 | K19T | 4.49 kcal/mol
149 | K19L | 4.5 kcal/mol
150 | T11I | 4.59 kcal/mol
